From patent publication US20120071419A1 (POSTECH ACADEMY INDUSTRY FOUNDATION, published 2012)

B1: wild type 1OZJ scaffold (B chain of 1OZJ, crystal structure of Smad3-MH1) (other, human, UniProt P84022 1-144, looked up)
chain: MSSILPFTPPIVKRLLGWKKGEQNGQEEKWCEKAVKSLVKKLKKTGQLDELEKAITTQNVNTKCITIPRSLDGRLQVSHRKGLPHVIYCRLWRWPDLHSHHELRAMELCEFAFNMKKDEVCVNPYHYQRVETPVLPPVLVPRHT
notes: domain: Smad3-MH1; 6; also called WT
B2: clone 31 of the 1OZJ scaffold (designed binder)
chain: MSSILPFTPPIVKRLLGWKKGEQNGQEEKWCEKAVKSLVKKLKGTGQLDELEKAITTQNVNTKCITIPRSLDGRLQVSHRKGLPHVIYCRLWRWPDLHSHHELRAMHLCPFAFKMKKWEVCVNPYHYQRVETPVLPPVLVPRHT
notes: domain: Smad3-MH1
B3: clone 8 of the 1OZJ scaffold (designed binder)
chain: MSSILPFTPPIVKRLLGWKKGEQNGQEEKWCEKAVKSLVKKLKGTGQLDELEKAITTQNVNTKCITIPRSLDGRLQVSHRKGLPHVIYCRLWRWPDLHSHHELRAMPLCNFAFTMKKPEVCVNPYHYQRVETPVLPPVLVPRHT
notes: domain: Smad3-MH1
B4: clone 43 of the 1OZJ scaffold (designed binder)
chain: MSSILPFTPPIVKRLLGWKKGEQNGQEEKWCEKAVKSLVKKLKRTGQLDELEKAITTQNVNTKCITIPRSLDGRLQVSHRKGLPHVIYCRLWRWPDLHSHHELRAMHLCNFAFGMKKAEVCVNPYHYQRVETPVLPPVLVPRHT
notes: domain: Smad3-MH1
B5: clone 53 of the 1OZJ scaffold (designed binder)
chain: MSSILPFTPPIVKRLLGWKKGEQNGQEEKWCEKAVKSLVKKLKATGQLDELEKAITTQNVNTKCITIPRSLDGRLQVSHRKGLPHVIYCRLWRWPDLHSHHELRAMSLCSFAFSMKKIEVCVNPYHYQRVETPVLPPVLVPRHT
notes: domain: Smad3-MH1
B6: clone 7 of the 1OZJ scaffold (designed binder)
chain: MSSILPFTPPIVKRLLGWKKGEQNGQEEKWCEKAVKSLVKKLKLTGQLDELEKAITTQNVNTKCITIPRSLDGRLQVSHRKGLPHVIYCRLWRWPDLHSHHELRAMALCAFAFMMKKCEVCVNPYHYQRVETPVLPPVLVPRHT
B7: clone 6 of the 1OZJ scaffold (designed binder)
chain: MSSILPFTPPIVKRLLGWKKGEQNGQEEKWCEKAVKSLVKKLKSTGQLDELEKAITTQNVNTKCITIPRSLDGRLQVSHRKGLPHVIYCRLWRWPDLHSHHELRAMGLCSFAFNMKKLEVCVNPYHYQRVETPVLPPVLVPRHT
B8: clone 55 of the 1OZJ scaffold (designed binder)
chain: MSSILPFTPPIVKRLLGWKKGEQNGQEEKWCEKAVKSLVKKLKITGQLDELEKAITTQNVNTKCITIPRSLDGRLQVSHRKGLPHVIYCRLWRWPDLHSHHELRAMKLCRFAFPMKKDEVCVNPYHYQRVETPVLPPVLVPRHT
notes: domain: Smad3-MH1
B9: clone 54 of the 1OZJ scaffold (designed binder)
chain: MSSILPFTPPIVKRLLGWKKGEQNGQEEKWCEKAVKSLVKKLKCTGQLDELEKAITTQNVNTKCITIPRSLDGRLQVSHRKGLPHVIYCRLWRWPDLHSHHELRAMILCDFAFPMKKREVCVNPYHYQRVETPVLPPVLVPRHT
notes: domain: Smad3-MH1
B10: clone 9 of the 1OZJ scaffold (designed binder)
chain: MSSILPFTPPIVKRLLGWKKGEQNGQEEKWCEKAVKSLVKKLKATGQLDELEKAITTQNVNTKCITIPRSLDGRLQVSHRKGLPHVIYCRLWRWPDLHSHHELRAMQLCIFAFLMKKPEVCVNPYHYQRVETPVLPPVLVPRHT

These binders were tested against T1, EGFR (Epidermal Growth Factor Receptor) (human, UniProt P00533 26-444, limits assumed) (assay: phage ELISA, wells coated with 4 ug/ml EGFR, anti-M13-HRP).
T1 construct: also called EGF receptor
Protocol: (§1) Individual colonies were randomly selected from the output titration plate of the last round, and inoculated in 1 ml of super broth (3% tryptone, 2% yeast extract, 1% 3-[N-Morpholino] propanesulfonic acid [MOPS], pH 7.0). after overnight incubation at 37° C., the supernatant was used for phage ELISA (enzyme-linked immunosorbant assay). microtitration plate wells were coated with 4 μg/ml EGFR-containing PBS at 4° C. for one night, and blocked with 3% BSA-containing PBS at 37° C. for 1 hour. The plate was cultured with the phage-containing supernatant at 37° C. for 2 hours, and washed with 0.05% Tween-20-containing PBS (PBST) three times. Thereafter, HRP (horseradish peroxidase)-conjugated anti-M13 antibody (Sigma) diluted in a blocking buffer solution (1:2000) was added thereto and cultured at 37° C. for 1 hour. 50 μl of TMB substrate solution (Pierce, Rockford, Ill.) was added to each well, and OD was measured at 650 nm.

| Binder | OD at 650 nm |
| --- | --- |
| B1 | 0.086 OD |
| B2 | 0.959 OD |
| B3 | 1.18 OD |
| B4 | 0.919 OD |
| B5 | 1.02 OD |
| B6 | 1.74 OD |
| B7 | 1.83 OD |
| B8 | 0.964 OD |
| B9 | 1.16 OD |
| B10 | 1.75 OD |

What follows are binders tested against T1, EGFR (Epidermal Growth Factor Receptor) (assay: phage ELISA, wells coated with 4 ug/ml EGFR, anti-M13-HRP, OD 650 nm).
Protocol: as §1

| Binder | binding result |
| --- | --- |
| B1 | no binding |
